{
  "source": "the supplement of paper PMC10724198",
  "note": "± gives the standard deviation of the averaged measurements.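 Also: PSI is a weighted mean of sequencing reads over stability bins, variants kept only with over 10 reads, mCherry proximal and sfGFP distal, peptide attached via GGGS linker.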",
  "data": [
    {"test_system": "Saccharomyces cerevisiae", "assay": "protein stability index of tFT-peptide fusion (C-terminal peptide) (PSI (0-1 scale)); higher = more stable (slower turnover)", "conditions": "genetic background: cdc34-1; temperature: 37 C", "protocol": "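MPS profiling in S. cerevisiae of the tFT-X12 degron library: putative degron peptides plus stable controls, 12 aa, fused to the C-terminus of a sfGFP-mCherry timer. Cells are FACS-sorted into 8 mCherry/sfGFP bins and deep-sequenced. PSI runs from 0 (unstable) to 1 (stable). Backgrounds are wild type, das1Δ and doa10Δ at 30 °C, and wild type, das1Δ, cdc34-1 and cdc53-1 at 37 °C; 2-3 technical replicates each.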", "values": [
      {"sequence": "CREFLQSMLFYC", "protein stability index": "0.688 ± 0.043"},
      {"sequence": "CSAVYNLHLLYS", "protein stability index": "0.696 ± 0.022"},
      {"sequence": "CSFPTFRSLLLL", "protein stability index": "0.532 ± 0.018"},
      {"sequence": "CSPSCNIVRLVS", "protein stability index": "0.527 ± 0.016"},
      {"sequence": "CTYSLSVLFVFF", "protein stability index": "0.396 ± 0.014"},
      {"sequence": "CVFFCVLVCFLS", "protein stability index": "0.342 ± 0.0056"},
      {"sequence": "CVLSWSLFVVVW", "protein stability index": "0.0234 ± 0.0015"},
      {"sequence": "CVVFLWCGGCWV", "protein stability index": "0.475 ± 0.013"},
      {"sequence": "CVVLCLFCWCML", "protein stability index": "0.358 ± 0.004"},
      {"sequence": "CYCSIGCLIIFS", "protein stability index": "0.2261 ± 0.0021"},
      {"sequence": "DALHPCIIYLTC", "protein stability index": "0.594 ± 0.049"},
      {"sequence": "DECQLCNRDWRG", "protein stability index": "0.689 ± 0.069"},
      {"sequence": "DKKPMKKILLCI", "protein stability index": "0.451 ± 0.0075"},
      {"sequence": "DRLRSGLSLLLA", "protein stability index": "0.64 ± 0.014"},
      {"sequence": "DRQMRCVHIHYL", "protein stability index": "0.647 ± 0.041"},
      {"sequence": "DRYSFYGYVVVL", "protein stability index": "0.587 ± 0.021"},
      {"sequence": "DVCGVRYVLFVL", "protein stability index": "0.57 ± 0.014"},
      {"sequence": "DVRLVLCEMIKG", "protein stability index": "0.587 ± 0.048"},
      {"sequence": "DVYIVLFIIKHG", "protein stability index": "0.309 ± 0.052"},
      {"sequence": "EFFTLYDLVRFI", "protein stability index": "0.742 ± 0.042"},
      {"sequence": "ELTYVYRTALIA", "protein stability index": "0.152 ± 0.004"},
      {"sequence": "EMSIISVLRVIS", "protein stability index": "0.61 ± 0.013"},
      {"sequence": "ERFILVGMFGSW", "protein stability index": "0.702 ± 0.036"},
      {"sequence": "ERWSPWIVVFTN", "protein stability index": "0.464 ± 0.015"},
      {"sequence": "ESVPLLIVLHLV", "protein stability index": "0.304 ± 0.058"},
      {"sequence": "ETVHVISLIAIG", "protein stability index": "0.428 ± 0.021"},
      {"sequence": "EWFFCLGLFRFH", "protein stability index": "0.567 ± 0.022"},
      {"sequence": "FASVFCVVTGYV", "protein stability index": "0.551 ± 0.037"},
      {"sequence": "FCALWLCFRLMV", "protein stability index": "0.35 ± 0.024"},
      {"sequence": "FCCLVLDLEVSG", "protein stability index": "0.4314 ± 0.0037"},
      {"sequence": "FCLFMFVPLLPL", "protein stability index": "0.531 ± 0.032"},
      {"sequence": "FCMLCVVFLGSL", "protein stability index": "0.43 ± 0.067"},
      {"sequence": "FCVCLAVTCCGG", "protein stability index": "0.279 ± 0.023"},
      {"sequence": "FDWLFFFVNFVV", "protein stability index": "0.407 ± 0.063"},
      {"sequence": "FFAFLRFFIFYW", "protein stability index": "0.319 ± 0.058"},
      {"sequence": "FFALFLPLACFC", "protein stability index": "0.4689 ± 0.0012"},
      {"sequence": "FFCCFVFVLGFC", "protein stability index": "0.328 ± 0.011"},
      {"sequence": "FFCSILLGIILL", "protein stability index": "0.385 ± 0.014"},
      {"sequence": "FFFCFFIFCFSL", "protein stability index": "0.327 ± 0.005"},
      {"sequence": "FFFFSFFLATFS", "protein stability index": "0.227 ± 0.018"},
      {"sequence": "FFGVFIFPVSCR", "protein stability index": "0.203 ± 0.013"},
      {"sequence": "FFGVLFRVSLFF", "protein stability index": "0.12 ± 0.035"},
      {"sequence": "FFLLLLRPPLVM", "protein stability index": "0.34 ± 0.035"},
      {"sequence": "FFRFCFLLLASS", "protein stability index": "0.303 ± 0.011"},
      {"sequence": "FFSRSLGAGVAA", "protein stability index": "0.71 ± 0.037"},
      {"sequence": "FFVEFFLLCFCS", "protein stability index": "0.497 ± 0.023"},
      {"sequence": "FFVSFFFFLWLV", "protein stability index": "0.204 ± 0.011"},
      {"sequence": "FGFFDIKLPVVA", "protein stability index": "0.515 ± 0.037"},
      {"sequence": "FGVECDLCLFCC", "protein stability index": "0.617 ± 0.07"},
      {"sequence": "FGVVRVSIPVGV", "protein stability index": "0.211 ± 0.024"},
      {"sequence": "FIFCLSCGVWGG", "protein stability index": "0.5052 ± 0.0007"},
      {"sequence": "FILLFGFSHWVW", "protein stability index": "0.449 ± 0.033"},
      {"sequence": "FILLTLVFGCAS", "protein stability index": "0.188 ± 0.0054"},
      {"sequence": "FLAFLEPRVCCA", "protein stability index": "0.23 ± 0.037"},
      {"sequence": "FLAFSYIRLLFF", "protein stability index": "0.468 ± 0.05"},
      {"sequence": "FLCWLSFIPLLS", "protein stability index": "0.203 ± 0.0093"},
      {"sequence": "FLFFCGWVSLFG", "protein stability index": "0.408 ± 0.024"},
      {"sequence": "FLFFMGVGVVLY", "protein stability index": "0.285 ± 0.032"},
      {"sequence": "FLFIFFFFLISF", "protein stability index": "0.208 ± 0.018"},
      {"sequence": "FLFLFLFPFSLI", "protein stability index": "0.525 ± 0.047"}
    ]}
  ]
}
